{
  "source": "the RNAGym collection of RNA variant scans (doi:10.1073/pnas.2313332121)",
  "parents": {"B1": {"name": "TPR t1 (parent)", "chain": "GACCAAUCUGCCCUCAGAGCUCGAGAACAUCUUCGGAUGCAGAGGAGGCAGGCUUCGGUGGCGCGAUAGCGCCAACGUCCUCAACCUCCAAUGCAUCCCACCACAUGAUGAUGCCUGAAGAGCCUUGGUUUUUUG"}},
  "data": [
    {"variants_of": "B1", "test": "polymerase ribozyme fitness, log enrichment relative to wild type (log ratio); higher = more active; in vitro selection for triplet polymerase activity", "how_it_was_run": "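To select mutant libraries of each subunit of a heterodimeric triplet polymerase ribozyme, built by PCR and transcribed, each was annealed with a biotinylated primer, partner subunit and triplets, then incubated frozen at −7 °C. Extended constructs were gel-excised, captured on streptavidin beads and amplified by RT-PCR, in one round carried out in triplicate. Illumina sequencing of input and output libraries kept genotypes with ≥10 input reads and ≥1 read per output. Fitness is the base-2 logarithm of genotype enrichment relative to wild-type enrichment, from inverse-variance-weighted replicate averages.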", "values": [
      {"variant": "A50U C64U A111G U125A", "polymerase ribozyme fitness (log ratio)": -1.48},
      {"variant": "G110A U116G", "polymerase ribozyme fitness (log ratio)": -3.5},
      {"variant": "C13G G39C G113C", "polymerase ribozyme fitness (log ratio)": -3.84},
      {"variant": "C79U G120A", "polymerase ribozyme fitness (log ratio)": 0.635},
      {"variant": "C40A G69A", "polymerase ribozyme fitness (log ratio)": -4.81},
      {"variant": "G58A C82U G93U C94U U96C C123U", "polymerase ribozyme fitness (log ratio)": -3.17},
      {"variant": "C15G C40U G61A C89U A91C C123G", "polymerase ribozyme fitness (log ratio)": -0.621},
      {"variant": "G10U A75U", "polymerase ribozyme fitness (log ratio)": -0.536},
      {"variant": "A5U C53U G63A C79G G127C", "polymerase ribozyme fitness (log ratio)": -2.9},
      {"variant": "C8U U21G", "polymerase ribozyme fitness (log ratio)": -0.546},
      {"variant": "C8G G47A U130C", "polymerase ribozyme fitness (log ratio)": 0.26},
      {"variant": "U9G C97A A111G", "polymerase ribozyme fitness (log ratio)": -6.78},
      {"variant": "C12U C49A", "polymerase ribozyme fitness (log ratio)": 0.257},
      {"variant": "U132G U133A", "polymerase ribozyme fitness (log ratio)": 0.0135},
      {"variant": "U7G G17C G44C G77U C94A", "polymerase ribozyme fitness (log ratio)": -6},
      {"variant": "G60A U87A A119G U125C", "polymerase ribozyme fitness (log ratio)": -0.987},
      {"variant": "C11A C13U G63U", "polymerase ribozyme fitness (log ratio)": -2.94},
      {"variant": "G61U U78G C94A U129A", "polymerase ribozyme fitness (log ratio)": -2.72},
      {"variant": "U78C A121C", "polymerase ribozyme fitness (log ratio)": 1.83},
      {"variant": "G42A G61A C115A", "polymerase ribozyme fitness (log ratio)": -1.62},
      {"variant": "G19U C56G U106C", "polymerase ribozyme fitness (log ratio)": -5.42},
      {"variant": "A6U C15G C40U G61C C79A", "polymerase ribozyme fitness (log ratio)": -6.15},
      {"variant": "G10U A29C G60A", "polymerase ribozyme fitness (log ratio)": -3.27},
      {"variant": "A37C A68G U78C C82U U133G", "polymerase ribozyme fitness (log ratio)": -3.87},
      {"variant": "C11U A18U", "polymerase ribozyme fitness (log ratio)": -1.98},
      {"variant": "C8A G71U A84C A95G U109A U126A", "polymerase ribozyme fitness (log ratio)": -5.61},
      {"variant": "C11A G60U C97A C123U", "polymerase ribozyme fitness (log ratio)": -2.32},
      {"variant": "A18C G61A C85G", "polymerase ribozyme fitness (log ratio)": -3.25},
      {"variant": "C20A A50U", "polymerase ribozyme fitness (log ratio)": -4.4},
      {"variant": "C13G G51U A84C G127U", "polymerase ribozyme fitness (log ratio)": -6.59},
      {"variant": "G17C A83G U116G", "polymerase ribozyme fitness (log ratio)": -5.65},
      {"variant": "U54C G77C C104U", "polymerase ribozyme fitness (log ratio)": -0.638},
      {"variant": "C49G A91U C115A G128C U131A", "polymerase ribozyme fitness (log ratio)": -6.98},
      {"variant": "U54A G69A U78G C82G A121U U130A", "polymerase ribozyme fitness (log ratio)": -1.06},
      {"variant": "U32C G42U A43U U87C C94A C101U C102U", "polymerase ribozyme fitness (log ratio)": -5.8},
      {"variant": "G36U C73G U106A G127C", "polymerase ribozyme fitness (log ratio)": -2.55},
      {"variant": "A24G G61A A84U C85A", "polymerase ribozyme fitness (log ratio)": -2.08},
      {"variant": "A43C G71U U112C G135A", "polymerase ribozyme fitness (log ratio)": -1.05},
      {"variant": "C49G G61A A95C", "polymerase ribozyme fitness (log ratio)": -1.32},
      {"variant": "C3A C73G", "polymerase ribozyme fitness (log ratio)": -1.48},
      {"variant": "C4A G135U", "polymerase ribozyme fitness (log ratio)": -2.46},
      {"variant": "G42A G47C C82U A84G", "polymerase ribozyme fitness (log ratio)": -3.91},
      {"variant": "G69U C86U C101U C102U G120C", "polymerase ribozyme fitness (log ratio)": 0.552},
      {"variant": "A43C G47U G52A C56U", "polymerase ribozyme fitness (log ratio)": -4.62},
      {"variant": "A105C A121G", "polymerase ribozyme fitness (log ratio)": 0.5},
      {"variant": "C85A C99U G113A", "polymerase ribozyme fitness (log ratio)": -4.82},
      {"variant": "C49U U130C", "polymerase ribozyme fitness (log ratio)": 0.0143},
      {"variant": "A27U A74U U87A", "polymerase ribozyme fitness (log ratio)": -2.97},
      {"variant": "A5C C72A C88A", "polymerase ribozyme fitness (log ratio)": -1.74},
      {"variant": "C13G A16G U21A A29C A43U G69U C82G C114U", "polymerase ribozyme fitness (log ratio)": -4.09},
      {"variant": "G10U G42U C104A G120C", "polymerase ribozyme fitness (log ratio)": -4.1},
      {"variant": "C13G U54C C89U A90U", "polymerase ribozyme fitness (log ratio)": -3.33},
      {"variant": "C22A G61A A66C", "polymerase ribozyme fitness (log ratio)": -5.28},
      {"variant": "C76A C94U G117C", "polymerase ribozyme fitness (log ratio)": -5.54},
      {"variant": "G69U C82U A111C U112A G122C", "polymerase ribozyme fitness (log ratio)": -0.869},
      {"variant": "G63C U109G", "polymerase ribozyme fitness (log ratio)": -3.42},
      {"variant": "G113U G128C", "polymerase ribozyme fitness (log ratio)": -4.63},
      {"variant": "C40U G42A C56U C80U G120U U132C", "polymerase ribozyme fitness (log ratio)": -3.64},
      {"variant": "U21A C88G", "polymerase ribozyme fitness (log ratio)": -0.967},
      {"variant": "A6G G71A C82A A111U", "polymerase ribozyme fitness (log ratio)": -4.56},
      {"variant": "A26G G69A", "polymerase ribozyme fitness (log ratio)": -4.23},
      {"variant": "C13A C85U C102U", "polymerase ribozyme fitness (log ratio)": -4.16},
      {"variant": "G10U G63U G113C", "polymerase ribozyme fitness (log ratio)": -4.79},
      {"variant": "G47U G113C", "polymerase ribozyme fitness (log ratio)": -2.7},
      {"variant": "G52A C72A", "polymerase ribozyme fitness (log ratio)": 0.151},
      {"variant": "G52A C123A", "polymerase ribozyme fitness (log ratio)": -0.148},
      {"variant": "U129C U134G", "polymerase ribozyme fitness (log ratio)": 1.11},
      {"variant": "G77A C123G G135U", "polymerase ribozyme fitness (log ratio)": 0.853},
      {"variant": "C8A A24G G113A", "polymerase ribozyme fitness (log ratio)": -3.12},
      {"variant": "G48U U59A G60U C79U U92G G122A C123A", "polymerase ribozyme fitness (log ratio)": -5.96},
      {"variant": "C70U G107A", "polymerase ribozyme fitness (log ratio)": -5.06},
      {"variant": "G19U C40U G47U G61A U106A C123U", "polymerase ribozyme fitness (log ratio)": -6.98},
      {"variant": "G60C G93C G120A U126C", "polymerase ribozyme fitness (log ratio)": -0.901},
      {"variant": "A46U C73U G110A", "polymerase ribozyme fitness (log ratio)": -2.67},
      {"variant": "A121C", "polymerase ribozyme fitness (log ratio)": 1.74},
      {"variant": "C53G C80U G128C", "polymerase ribozyme fitness (log ratio)": -2.66},
      {"variant": "C40G C53G G77A U106C U116C", "polymerase ribozyme fitness (log ratio)": -3.58},
      {"variant": "C28G U59A C89G A103G C104A U109G C123G U133A", "polymerase ribozyme fitness (log ratio)": -5.51},
      {"variant": "G44C G63A C86A", "polymerase ribozyme fitness (log ratio)": -3.09},
      {"variant": "G48U C102A A111G", "polymerase ribozyme fitness (log ratio)": -1.65},
      {"variant": "U7G A50G", "polymerase ribozyme fitness (log ratio)": 0.715},
      {"variant": "C15A A27C U55A", "polymerase ribozyme fitness (log ratio)": -5.44},
      {"variant": "G48A C64U A95U G110C C115A", "polymerase ribozyme fitness (log ratio)": -5.72},
      {"variant": "U54A C62A A95C", "polymerase ribozyme fitness (log ratio)": -2.03}
    ]}
  ]
}
